Columns and labels:
[1] = target: recombinant PSMA protein (human) (UniProt Q04609); assay: ELISA on PSMA
[2] = target: His-PSMA (Sino Biological) (human) (UniProt Q04609); assay: ELISA, PSMA immobilized by its His tag, PCC titrated in solution
[3] = target: PSMA-Myc-Flag (Origene) (human) (UniProt Q04609); assay: ELISA, PSMA immobilized by its Myc-Flag tag, PCC titrated in solution
PSMA-Myc-Flag (Origene) (human), sequence (Q04609 whole entry): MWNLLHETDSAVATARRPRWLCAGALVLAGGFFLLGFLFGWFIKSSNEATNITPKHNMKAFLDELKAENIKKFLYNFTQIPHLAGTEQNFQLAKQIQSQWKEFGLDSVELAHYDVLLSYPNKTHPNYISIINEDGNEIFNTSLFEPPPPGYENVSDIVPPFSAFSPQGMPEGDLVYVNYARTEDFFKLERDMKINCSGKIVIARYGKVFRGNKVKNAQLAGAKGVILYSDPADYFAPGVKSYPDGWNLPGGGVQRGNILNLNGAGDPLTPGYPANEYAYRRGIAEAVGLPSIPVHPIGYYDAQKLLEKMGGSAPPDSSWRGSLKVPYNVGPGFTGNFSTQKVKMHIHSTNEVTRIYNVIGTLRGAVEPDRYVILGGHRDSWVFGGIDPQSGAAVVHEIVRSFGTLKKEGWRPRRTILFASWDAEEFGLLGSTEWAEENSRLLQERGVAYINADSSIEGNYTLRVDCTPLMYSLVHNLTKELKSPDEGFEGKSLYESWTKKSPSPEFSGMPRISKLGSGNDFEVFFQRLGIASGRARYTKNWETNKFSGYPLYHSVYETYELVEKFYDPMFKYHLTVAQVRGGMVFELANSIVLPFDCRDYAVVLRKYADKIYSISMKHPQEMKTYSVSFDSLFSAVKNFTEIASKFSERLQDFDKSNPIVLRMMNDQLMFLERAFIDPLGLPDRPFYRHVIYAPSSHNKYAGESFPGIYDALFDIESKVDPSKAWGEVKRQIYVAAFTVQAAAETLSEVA

recombinant PSMA protein (human), sequence (Q04609 44-750 limits assumed): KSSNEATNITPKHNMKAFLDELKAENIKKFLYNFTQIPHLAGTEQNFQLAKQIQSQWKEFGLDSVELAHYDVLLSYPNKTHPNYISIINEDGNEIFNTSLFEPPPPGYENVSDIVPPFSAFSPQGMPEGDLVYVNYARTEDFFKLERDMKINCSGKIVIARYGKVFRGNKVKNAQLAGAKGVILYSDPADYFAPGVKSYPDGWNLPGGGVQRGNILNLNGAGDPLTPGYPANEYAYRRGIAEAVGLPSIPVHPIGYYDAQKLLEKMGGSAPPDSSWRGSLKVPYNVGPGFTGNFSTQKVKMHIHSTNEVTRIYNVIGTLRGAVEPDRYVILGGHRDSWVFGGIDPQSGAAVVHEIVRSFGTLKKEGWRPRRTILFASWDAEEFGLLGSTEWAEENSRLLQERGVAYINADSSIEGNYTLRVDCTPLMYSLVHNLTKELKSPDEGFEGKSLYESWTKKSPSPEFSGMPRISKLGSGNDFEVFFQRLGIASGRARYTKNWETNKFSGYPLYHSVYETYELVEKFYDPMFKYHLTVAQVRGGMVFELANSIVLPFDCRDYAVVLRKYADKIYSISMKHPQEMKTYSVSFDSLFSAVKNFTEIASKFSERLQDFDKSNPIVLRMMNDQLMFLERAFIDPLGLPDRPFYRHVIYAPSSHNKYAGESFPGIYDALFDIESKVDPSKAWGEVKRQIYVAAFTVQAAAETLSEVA
His-PSMA (Sino Biological) (human), sequence (Q04609 44-750 limits assumed): as above

| EC50 [1] | EC50 [2] | EC50 [3] | Substance |
| --- | --- | --- | --- |
| 5580 nM |  |  | hnwlG (SEQ ID NO:19) (peptide) |
|  | 872 nM | 662 nM | hreww (SEQ ID NO:10) (peptide) |
| 8.6 nM |  |  | lfkhh (SEQ ID NO:16) (peptide) |

Reference: US20200147244A1
